assay: soluble on expression in E. coli; label from the status in PepcDB or PDB records

Sequence | soluble on expression in E. coli
MGSDKIHHHHHHMQNLSPTQREILLALTDLYNRQKRMIKSKEVADIIGKDEGTVRNIILSLKVLGLVESKPGPNGGYMPTLKAYEIINNPTLTPILDKLNLYKGMIETDIKVENIEIIDITNPSANRVLLKVEGDLRKLKIGDAVRLGPTPYSRLVIEGLILHLDENSKEIVVDVKRMISIPKEKVKNLISKKLIALKPETSLREASMIFYKEAIRGAPVINQDEKVVGILTTADIIKAFFEGNYTAKVSDYMKTNVISINENEDLLDAIRKMIIYNVGRLLVLDSNNKAVGIVTRTDILRSIAGLEGLWTT | not soluble
MAHHHHHHMGTLEAQTQGPGSMLTYFHPDQSLHHPRTYFSRGRMRMPQEVPERAARLVAAAFAMGFPVREPDDFGIAPIAAVHDTHYLRFLETVHREWKAMPEDWGDEAMSNIFVREPNALRGVLAQAARHLADGSCPVGEHTWRAAYWSAQSALAAAAAVRDGAPAAYALCRPPGHHARVDAAGGFCYLNNAAIAAQALRARHARVAVLDTDMHHGQGIQEIFYARRDVLYVSIHGDPTNFYPAVAGFDDERGAGEGLGYNVNLPMPHGSSEAAFFERVDDALRELRRFAPDALVLSLGFDVYRDDPQSQVAVTTDGFGRLGHLIGALRLPTVIVQEGGYHIESLEANARSFFGGFGALRG | soluble
MAQPQLYLPEPFKIAYRKVGQCRRFQQLKKKNGSFKRKGIERWHRAVSTNLLKQNVLVPKEESSSDSDMGFHESQQNQKSNLKTKVKTAFGRMLSYKYRSKPACASQEGSTDHKEALLSNTQSLLPRIVKEFSSPKLFTAKMRKLSENATIQLDVVEAETEEITQGNTLLRARRTTKRLSVTSLPSGLQKGPYSPKKRPHFPALKKKKRGMENILRKSDLTVGKLQMQVDDLIETVTDKSMKLLAQRHAELQQCEFLGDEILQSSKQFQRISKRTMRKYKLKNMTTKGPGDS | soluble
MGSDKIHHHHHHMSLPAMDAGIYLEETAPRALIEHNNILDNSVGVYLHGSADAMVRENKIVGDATLRVNERGNGVTVWNAPGAQVVGNDISKGRDGIFSNTSTHNTYKNNRFSDLRFAVHYMYTNDSEISGNISVGNNMGYVLMFSERLKVFDNIAVGSRDQGIMLNYVNYSDIHDNIINKAGKCVFAYNANYDKLSANHFENCQIGIHFTAAIEGTSLHDNSFINNESQVKYVSTRFLDWSEGGHGNYWSDNSAFDLNGDGFGDSAYRPNGIIDQIIWRAPVSRLLMNSPAISIVKWAQAQFPAVLPGGVVDSKPLMKPYAPKIQTRYQAMKDGLLKKVETRQLEWGRAENGSLN | not soluble
MQDLSAVKAFHALCQHKSLTAAAKALEQPKSTLSRRLAQLEEDLGQSLLMRQGNRLTLTKAGEVFAVYSEQLLELANKSQEALQELNNQVTGELTLVVHPNLIRGWLSQVLDEFMQQHSTLKIRLLSQFQHSDEVFEPDLIIWIEHAAPMGYRKERLGYWRYAAYASPKYLAHRDKPTHPRELIHHPWIDFIACRRAELELHHPEFGSYSLPALESRLQSDNLAMQADAIAKGRGIGLLPTWFANGFETAHPGSLIPCVNGWQSQPTEINCFYPLGRHPLRLRLFIDALRQARPDEWQ | not soluble
MSLNSESLGLLQEFLKTHKYKEFRDQAKNLRAPFILQAIVSTPTTVKYYTQGRLIKCCETDSTGNITTSYTYNDKGQLTTTLSVTEKNGQPINEVQTSRLYDPQGHCIFEVKTNPKTKTDFYRRARRIGIDGSIESDSLKYMDGRYTVSSYNKQGLLTETKEYNKNGEMEGYTVNKYDDKGRMTESQHQNMLFVNSPNQILSQKELYEYDKYGYLTRIVYQRIFGNSQKTSGCLTCLYDEYGNRIDGDSYYEYDNTGQWICRTSYDNPQQVERIQYIYKEGHHHHHH | not soluble
GTDGTKPECTLCGVKYSARLSIRDHIFSKQHISKVRETVGSQLDREKD | soluble
MDELLNRLRQTWHSTIPVSEFMQIAPLSFTDGELSVSAPLAPNINLHHTMFAGSIYTIMTLTGWGMVWLQQQLLNVDGDIVLADAHIRYLAPVTSAPEVKVRWPDTNLSPLQRGRKAKVKLEVQLFCDGKLCAQFDGLYVSVPKMLEHHHHHH | soluble
GSFTMADLDDIKDGKDFRTDQPQKNIPFTLKGCGALDWGMQSRLSRIFNPKTGKTVMLAFDHGYFQGPTTGLERIDINIAPLFEHADVLMCTRGILRSVVPPATNRPVVLRASGANSILAELSNEAVALSMDDAVRLNSCAVAAQVYIGSEYEHQSIKNIIQLVDAGMKVGMPTMAVTGVGKDMVRDQRYFSLATRIAAEMGAQIIKTYYVEKGFERIVAGCPVPIVIAGGKKLPEREALEMCWQAIDQGASGVDMGRNIFQSDHPVAMMKAVQAVVHHNETADRAYELYLSEKQ | soluble
MLKGHLHSVESLGTVDGPGLRYILFTQGCLLRCLYCHNPDTWKISEPSREVTVDEMVNEILPYKPYFDASGGGVTVSGGEPLLQMPFLEKLFAELKENGVHTCLDTSAGCANDTKAFQRHFEELQKHTDLILLDIKHIDNDKHIRLTGKPNTHILNFARKLSDMKQPVWIRHVLVPGYSDDKDDLIKLGEFINSLDNVEKFEILPYHQLGVHKWKTLGIAYELEDVEAPDDEAVKAAYRYVNFKGKIPVEL | not soluble
MGSDKIHHHHHHMTLDAVLTQIDTDLDAAMARLMALLRVPSISTDPAFDADVARAAQILCDDLTGLGFDASVRETTGHPMVVAHGDDTGPHVLFYGHYDVQPVDPLDLWDRDPFDPIIEEQNGKKVIRARGASDDKGQLMTFIEACRAWKAVTGKLPAKVTIFLEGEEESGSPSLVPFMEAHKDELTAEVALICDTGLFAEGVPAIVTQLRGMLQEEITVTGPRIDLHSGMFGGIAMNPIRVLSGVLAGLHDANGSVTVPGFYEGVPDISDDLRASWDALGFVPEAFLGPVGLSHPAGEAGRSGLEMIWSRPTAEVNGVWGGYTGAGFKTVLPSQAHAKISFRLVAGQDPDRLHENFVDWVTAQMPPDCTVSITQIAGSRASQMDTSHPIFETTRQALSDEWPNEAAYIGCGGSIPVAGHFKTILGMDSVLAGFGKDDDAIHSPNEKYDVESFHRGIRSWARVLGGLSEV | not soluble
DAQNYFQATEIRTMIALLQLIDNPYQDIPLAAVLRSPIVGLKENELVLIRLANKETSYYEAFLTFNQKMEPTMEEAVVQEKTIRFAESLEKWREQARRNQISNLLWTIYRETAYLDYVGGLPVGKQRQANLYALVDRAAAYEKTTFRGLFQFVRFIEKMQEKDKDLAEPVVLSEENAVRV | not soluble
MSLADKLSLETLESWLWESANILRGSIDSSDFKNYIFGLLFLKRYNDVFDERVTKLREEENLSYGEAQEEIEDKWGKYPISARWFDLISRTENIGEALDKAFATIEANNPELQHVLTATQYGDKRVLADATLQRLLRHFNQYKLGNDDLYKADMLGDAYEYLIKQFADDAGKKGGEFYTPKAVVQLVVELIDPRPGHSVYDPTCGSGGMLVESAHHVSGLPDGTLMGKPNVLLYGQEKNLGTWAIAKLNLYLHNMHASIERGDTLVEPKHLDGDYLKTFDRVIANPPFSAKSWWTPLELSNENEQENGKKVKAPNYKQVSDPYGRLVYGVPPRGYADLAFAQHMLASLKADGRMGVILPHGVLFRSGEEGKIREGLLFGTGAASGNQPGDVIEAIVGLPSALFYNTGIPACVLILNKQKPSALKDKVIIIDGSRDYLEGKAQNSLHAEDILRIVSTHKAAFEQQVEVENYCRLVTLDEIRSNDGNLNIVRYIDNGESDEVVNVAATLAHMATLAKEEAQIDQRLNRYLMELGLLETGEGHHHHHH | soluble
MSLTERKQRFLRRILTYYTLKRRESKWIIDYWLRNDSKLEQVHFVQNAMFAPKAMIITTYGFDADPFLFKKGEVKTTDPEKAYHDIRLTDEPLYIELNFQGMMMDDEYLSLLEENPFRPEVAVEPKLADAAMNFIAATVNRQEEERLVRLIDEALDARDKHRFQSLSDELRIIRSQLEGHHHHHH | soluble
MIKKAFCMQVYPDQHAEYQRRHEKLWPEMRQMLKEHGAIKYQIFLNPETSTLFGYLEIEDEARWEQIALTPINQKWWNYMEDIMETNPDCSPMTAELKKVFEL | not soluble
MGSDKIHHHHHHVAIALDFGTSNTVVARWNTETQSPELLSLTNLSQRGSQTPPLIPSLLYVEEATMPRLLAGQAVRDQGRDRPQDSRFFRSFKRGIGAEVTGFLPDLDGVCPDFEQVGQWFLDTVIAALEPGDRDGADLVLTVPVDSFENYRLWLSRVAQQWPVDRVRLIDEPTAAALGYGVEQQSPILVFDFGGGTLDLALIELGQTTSKVRSPLGFILKWGDQSFGDNSGQRPQLARVLAKAGRNLGGNDLDDWLTDYFAKQLNTAPTRVLTRLAERIKIQLSTTPEASEVYFDDETLQSLQLQLDRSQFQQILHDRGFFEQLDELLESVLQQGRRQGINPDAIAAVLMVGGSAQIPAVQDWLAGYFPTEKIRCDRPFEAVACGALQLAQGLEVRDFLYHSYGIRYWNHRSQRHDWHPLIPPGQAYPMAEPVELVLGASVAQQPSMELVLGELSQDRGATEIFFDGDRLITRRIGPDRTAAKALNDSETARTIARLDPPGDPGVDRLRLQFWVDRDRFLRVTIEDLLTLETVVENQVVIQL | not soluble
MAYNKEEKIKSLNRMQYEVTQNNGTEPPFQNEYWDHKEEGLYVDIVSGKPLFTSKDKFDSQCGWPSFTKPIEEEVEEKLDTSHGMIRTEVRSRTADSHLGHVFNDGPGPNGLRYCINSAALRFVPKHKLKEEGYESYLHLFNK | not soluble
MGSDKIHHHHHHMKLKQSESFKMDAFSMRVGDIEGVELDRLHALSLSVGWPHRAEDWQFLRNVGRGVVVLDEIGRVQGSAMWFEHGADFATVGMVITSPRLQTLGAAQWLMKRIFDKVGGRDLRLNATRAARRLYLSLDFLPEKTVYQCQGIARLETTGGPTDLRDVRALDPSDIPAAIALDAAGFGVRRAALVEKLFVHSAGYGLFKHDKLNAFALCRPFGRGHVVGPVVAESDADAVAVVRPHVADNSGSFLRIDTHMANGDFAAFLSHSGMTVFDTVLTMSMGKRLADFAVNGTVAPVTYALASQTLG | not soluble
MSLSDGNITFAYSYPIKAFEKFLGYYDRENRIAFNPSISMRTDFSFCLAACRYRKNGKTDTVVLDGYADNKYYKKAKFALDKFRSEYSINGSFDFYIKRYRRYQKAKGLSESSAVAAAVSRALISNVFGDDAAKDDIFVSRYARLVSGSGTRAAHDGISMWLSYPGMDSRDCVAFKVGKSNENLNYGVFPKYSDVATDNAHSIAVNSVFYGTWVSEKFSNVKRLISDHFDINDLLKIGENDMLRLNSILMSGGLIIQTPDSLRILKEILKFKSKNEGFYFTADTGPSIAIFSFDRSLIDEFRENVNDEYIEGSYDFKGYNNEGHHHHHH | not soluble
AADALVRVDGFERTSSSNTVTDIVPGVVLNLTKAAEGTKVTLGVTADTSGLKGNLTAFAAAYNTANTLLKNSSSYNAETRTASALTGDSLVRGLQQQLRGQVSGSISELKALGLTIDKDGVMSFDGGKFDTAIAADGGAAAEALGKDSKFGSGLTKLLDANVNVNNGTLTLRSDSLNKQIKGFEADLDNLDARMEKLTDRYTAQFTAMETMISKMQGATGSLSSLLAI | not soluble
KMGPEYTKMQNLVKSEGLHTVCQEAGCPNIYECWEDREATFLIGGDQCTRRCDFCQIDTGKPEALDRDEPRRVGESVVTMDLNYATITGVARDDLEDGGAWLYAETVRQIHAQTAGREAGRTKVELLAPDFNAEPDQLAEVFSARPEVFAHNVETVPRIFKRIRPGFRYERSLKVITEARDYGLVTKSNLILGMGETREEVSEALRQLHDAGCELITITQYLRPSVRHHPVERWVKPHEFVELKEEAEEIGFSGVMSGPLVRSSYRAGRLYQMAMELRQSAAPQGGAQVASQAV | not soluble
